The values that follow come from the supplement of paper PMC9170038.

The test system of this data set is MS2 coat protein. The data set can be described thus: apparent KD of MS2 coat protein; designed switch direction (-1 OFF switch, 1 ON switch): -1; higher = weaker reporter binding. The method, boiled down:
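For each design, the apparent KD is the median over clusters of curves fitted to normalised cluster fluorescence. Clusters held RNA switches with common flanks, transcribed on Illumina chips by stalled E. coli RNA polymerase. These were titrated with SNAP-549-labelled MS2 coat protein, doubling from 0.7 or 1.5 nM to 3 µM, without input, with 200 uM small-molecule ligand, or with an oligonucleotide input.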

Setting [1] is: input ligand: microRNA oligo, concentration not stated.
Where [2] appears, read: Eterna round: R95, input ligand: microRNA oligo, concentration not stated.
[3] abbreviates: Eterna round: R95, input ligand: FMN 200 uM.
Setting [4] is: Eterna round: R95, input ligand: none.

As for “UGAUCUAGCGGAGGAUAUACAUGAGGAUCACCCAUGUAGAAUCCAUGACCGUAGUCGUGGAUCGUGUAGAAGGCCGCUAGAUCU [JL ENG2 3.71] (Eterna round: R96, puzzle: Exclusion NG 2)”, the “apparent KD of MS2 coat protein” value reads like this: (input ligand: FMN 200 uM) 21.8 nM; under setting [1], 9 nM; (input ligand: none) 12.5 nM.

“GAUAGAGCAGGAUAUCGAGAUCCGCACAUGAGGAUCACCCAUGUUCGGUCGAAAGACCGACGAGAAGGGCUGUAUC [Omei Ex5 E7] (Eterna round: R97, puzzle: Exclusion 5)”: the “apparent KD of MS2 coat protein” value by setting is: (input ligand: FMN 200 uM) 838 nM; (input ligand: none) 4190 nM.

As to “ACACCUCACGUCAGGAUAUCUAUCUCGAGUGAGGAAGAGAAGGGACAUGAGGAUCACCCAUGUAUAGAAAGAAU [Usissodi] (Eterna round: R97, puzzle: Brourd's mod of Exclusion 4)”, the “apparent KD of MS2 coat protein” value reads like this: (input ligand: FMN 200 uM) 125 nM; (input ligand: none) 27.2 nM.

“UCCGGACAUGAGGAUCACCCAUGUGAGGAUAUUGUCGACACGACUGAAAGGAUCACGGCGAGAAGGCGCUUGGA [Eternabot (L2) Solution 48] (Eterna round: R97, puzzle: Exclusion 1)”: the “apparent KD of MS2 coat protein” value (input ligand: FMN 200 uM) is 25.7 nM and the “apparent KD of MS2 coat protein” value (input ligand: none) stood at 21.6 nM.

Turning to “GACUCUCCCGUGAGGAUAUAUGAGGCCAUGAUUCCAUAGAAGGCACAUGAGGAUCACCCAUGUCGGGCAUAGCC [Eternabot (L2) Solution 8] (Eterna round: R97, puzzle: Brourd's mod of Exclusion 4)”, the “apparent KD of MS2 coat protein” value stood at 25.7 nM (input ligand: FMN 200 uM) and 41.3 nM (input ligand: none).

Regarding “AUCAUGUGAGGAUAUGUGAUCAACCUUCUGUAUAGAUGAUUACAGAAGGCACAUGAGGAUCACCCAUGUAGAUC [Ex4 - 3 - 21] (puzzle: Exclusion 4)”, the “apparent KD of MS2 coat protein” value under setting [2] worked out at 55.7 nM.

In the case of “AAAAUGUCAGGAUAUACGAAACAAAACAAAACAAAACAAAAGUAGAAGGGACAUGAGGAUCACCCAUGUAAGAA [Exclusion 4 #2] (puzzle: Exclusion 4)”, the “apparent KD of MS2 coat protein” value worked out at 49.6 nM under setting [3], 24.1 nM under setting [2] and 32.5 nM under setting [4].

In the case of “AAAGUGUAAGGAUAUCCGAAAAGCGAGCGAAAGCGAGCGAAGGAGAAGGUACAUGAGGAUCACCCAUGUAAGGG [AK-MS2ROC-r4-exclusion4-11.5] (Eterna round: R97, puzzle: Exclusion 4)”, the “apparent KD of MS2 coat protein” value (input ligand: FMN 200 uM) stood at 215 nM and the “apparent KD of MS2 coat protein” value (input ligand: none) was found to be 961 nM.

Take “ACAGUACAUGAGGAUCACCCAUGUGAGGAUAUAGUAGUAUGGGAGACCAUACUAAAGACUAGAAGGCGCGGGCA [Exclusion 1 S1] (Eterna round: R97, puzzle: Exclusion 1)”: the “apparent KD of MS2 coat protein” value (input ligand: FMN 200 uM) was determined as 43.6 nM and the “apparent KD of MS2 coat protein” value (input ligand: none) is 67 nM.

“GCUGCACAUGUAGGAUAUCUGCACGUUUAGUGCAGAGAAGGACAUGAGGAUCACCCAUGUAGAUCAGCAGCAAUUAAUUUAAUU [ENG1/6-A3] (Eterna round: R96, puzzle: Exclusion NG 1)”: the “apparent KD of MS2 coat protein” value was determined as 809 nM (input ligand: FMN 200 uM), 479 nM under setting [1] and 473 nM (input ligand: none).

Turning to “GAUUAAUGCAAGGAUAUGCUAUUAAUUUAUUUUGCAGAAGGUGCAACAUGAGGAUCACCCAUGUUGGAGGGUAU [JR_E6_Sub027] (puzzle: Exclusion 6)”, the “apparent KD of MS2 coat protein” value under setting [2] turned out to be 18.8 nM.

With “UAUUAGCAAGCAAAUGGGUACAUGAGGAUCACCCAUGUGCUCGUCUUAUAAGGUACUGUGACGAAAGUCACGGUACC [Eli 91 v35] (Eterna round: R97, puzzle: Sensor, turn-off variant 1)”, the “apparent KD of MS2 coat protein” value by setting is: (input ligand: FMN 200 uM) 24.6 nM; (input ligand: none) 22.5 nM.

With “AAUAACAGAGGAUAUACUAUUUUAUGUGUUUGUUGUUUUGAACAUGAGGAUCACCCAUGUAGAAGGCUGAUUAA [JMF 52] (puzzle: Exclusion 2)”, the “apparent KD of MS2 coat protein” value under setting [2] came to 34.3 nM.

On to “UGUCAGAUGGUAGGAUAUCCAUAUCGAGUGACCCUUUCAUAACAUGAGGAUCACCCAUGUCGGUGGGAGAAGGGCCGUACGGUG [salish99_ExNG02_R04_024] (Eterna round: R96, puzzle: Exclusion NG 2)”, for which the “apparent KD of MS2 coat protein” value runs as follows: (input ligand: FMN 200 uM) 27.1 nM; under setting [1], 29.6 nM; (input ligand: none) 36.2 nM.

With “CUCGCUGUAGGAUAUACAUAUGUCCUGUCAGCCGCGGCAGAACAUGAGGAUCACCCAUGUAGAAGGAUAGAGAG [Eternabot (Original) Solution 34] (Eterna round: R97, puzzle: Exclusion 2)”, the “apparent KD of MS2 coat protein” value is, setting by setting: (input ligand: FMN 200 uM) 48.3 nM; (input ligand: none) 26.7 nM.

For “UUUGUUUAUGUGAGGAUAUACUGUUUGUUUUGUUUGUAGAAGGUACAUGAGGAUCACCCAUGUUUUGUUUUUUU [JR_BME4_Sub033] (puzzle: Brourd's mod of Exclusion 4)”, the “apparent KD of MS2 coat protein” value under setting [2] is 21 nM.

Turning to “CGGAUGUGAGGAUAUACAUGAGGAUCACCCAUGUGAGCCAGCUAGCUGACUGGCUCGUGUAGAAGGCACGUCUG [JL-ex3-2.16 Brourd mod] (puzzle: Exclusion 3)”, the “apparent KD of MS2 coat protein” value under setting [2] came out at 14.2 nM.

Consider “UUAAGGGACUGAGGAUAUACAUGAAUUAUGUUUGUAGAAGGCAGAUUGUUAGUUUAUUCACUAUACAUGAGGAUCACCCAUGUU [JR_ExcNG1_Sub019] (Eterna round: R96, puzzle: Exclusion NG 1)”, for which the “apparent KD of MS2 coat protein” value under setting [1] was 17.1 nM.

As to “GUGCCGCGAGGAUAUACAGACGGGUCCAGUGCGUGUCUCGGACUUGAGGAUCACCCAAGUAGAAGGCGUCUCAG [salish99_ex2_r4_614] (Eterna round: R97, puzzle: Exclusion 2)”, the “apparent KD of MS2 coat protein” value by setting is: (input ligand: FMN 200 uM) 16.7 nM; (input ligand: none) 31 nM.

For “GACCUCACGGUCAGGAUAUCAGAACGGAAUGCGCAUGAGAAGGGACAUGAGGAUCACCCAUGUGGGCUCGUCGC [Eddionce] (puzzle: Brourd's mod of Exclusion 4)”, the “apparent KD of MS2 coat protein” value turned out to be 21.6 nM under setting [3], 13.9 nM under setting [2] and 17.9 nM under setting [4].

“CCCACGCACCAAGGAUAUGUUCCGCACAUGAGGAUCACCCAUGUGGCCAGCGAUUCUGUGUGAGAACAGAAGGUGGUUAUGUUA [Eternabot solution 41] (Eterna round: R96, puzzle: Exclusion NG 2)”: the “apparent KD of MS2 coat protein” value by setting is: (input ligand: FMN 200 uM) 468 nM; under setting [1], 315 nM; (input ligand: none) 219 nM.

Consider “UUGUUGUGUGUAGGAUAUGCAUGUUAUUAUUAUGCAGAAGGACAUGAGGAUCACCCAUGUGUAUUAUUAUUAUAUAUUAUAUAU [Title] (Eterna round: R96, puzzle: Exclusion NG 1)”, for which the “apparent KD of MS2 coat protein” value turned out to be 21.1 nM (input ligand: FMN 200 uM), 13.8 nM under setting [1] and 22.5 nM (input ligand: none).

For “ACAUGAGGAUCACCCAUGUCCGGCUGGUCCGUCUCGGCUGUCGAGGAUAUAGCUUGGUGUCCGCGCUAGAAGGUGGGAGCCGGU [Aenatbe mod 70] (Eterna round: R96, puzzle: Exclusion NG 3)”, the “apparent KD of MS2 coat protein” value is, setting by setting: (input ligand: FMN 200 uM) 61 nM; under setting [1], 40.2 nM; (input ligand: none) 56.6 nM.

Take “AGUAACAGAGGAUAUACUAUUUUAUGUGUUUAUUGUUUUAAACAUGAGGAUCACCCAUGUAGAAGGCUGAAUAA [JMF 86] (puzzle: Exclusion 2)”: the “apparent KD of MS2 coat protein” value under setting [2] is 28.4 nM.

In the case of “GGCUUCUGAGGAUAUUAACACCGUUACAUGAGGAUCACCCAUGUUCCUCACGCUACGGCUUAAGAAGGCAGAUGAA [Eternabot (Original) Solution 32] (Eterna round: R97, puzzle: Exclusion 5)”, the “apparent KD of MS2 coat protein” value is, setting by setting: (input ligand: FMN 200 uM) 29.6 nM; (input ligand: none) 64.9 nM.

Consider “ACAUGAUGCUUAGGAUAUGUUCUUACGCCAUGAAUAGAAGGGAGCGGACAGAAGUGACCUGACAUGAGGAUCACCCAUGUCUAA [Isusus] (Eterna round: R96, puzzle: Exclusion NG 1)”, for which the “apparent KD of MS2 coat protein” value (input ligand: FMN 200 uM) amounted to 84.4 nM, the “apparent KD of MS2 coat protein” value under setting [1] is 48 nM and the “apparent KD of MS2 coat protein” value (input ligand: none) worked out at 80.3 nM.

Turning to “ACAUGAGGAUCACCCAUGUACAGGGUUUAGUUUCAUCGUUUGAAGGAUAUACUCCGUUAGUUGUCGUAGAAGGUCACAUUUUGG [JR_ExcNG3_Sub006] (Eterna round: R96, puzzle: Exclusion NG 3)”, the “apparent KD of MS2 coat protein” value runs as follows: (input ligand: FMN 200 uM) 189 nM; under setting [1], 120 nM; (input ligand: none) 145 nM.

As to “UGAUCUUUUGUUAGGAUAUGCUGUUUUUUUUUUCAGCAGAAGGGACAUGAGGAUCACCCAUGUUUUGUCAUAAA [Magic-06] (Eterna round: R96, puzzle: Brourd's mod of Exclusion 4)”, the “apparent KD of MS2 coat protein” value by setting is: (input ligand: FMN 200 uM) 45 nM; under setting [1], 24.1 nM; (input ligand: none) 33 nM.

Regarding “ACGCGACAUGAGGAUCACCCAUGUGAGGAUAUGGCCUGUUUGUCGUGUGCUGGCUCUGUCAGAAGGCGCGUUGG [salish99_ex1_r4_042] (Eterna round: R97, puzzle: Exclusion 1)”, the “apparent KD of MS2 coat protein” value is, setting by setting: (input ligand: FMN 200 uM) 255 nM; (input ligand: none) 128 nM.

For the sequence “UUUUCAUAUGAAGGAUAUACUUAACAUGAGGAUCACCCAUGUGGUGUUGUGAGUGAGUGAGUUUAGUAGAAGGUCAAUUCUUUU [JMF's solution 90] (Eterna round: R96, puzzle: Exclusion NG 2)”, the “apparent KD of MS2 coat protein” value amounted to 613 nM (input ligand: FMN 200 uM), 277 nM under setting [1] and 351 nM (input ligand: none).

“ACUUAUAGAGGAUAUACAGAAUAUUACAUGAGGAUCACCCAUGUUCUUCAAUGUAUAUAUGUAGAAGGCUAAGGAU [Mat - Exclusion 5 - JL Mod - D6] (Eterna round: R97, puzzle: Exclusion 5)”: the “apparent KD of MS2 coat protein” value is 299 nM (input ligand: FMN 200 uM) and 89.9 nM (input ligand: none).
